{"source": "paper PMC12630360", "key": {"[1]": {"target": "HLA class I heavy chains of HeLa/US6 cells (the H of HLA-Hβ in the BFA/temperature upshift decays) (human (endogenous in HeLa))", "assay": "flow cytometry on cells; BFA/temperature upshift decays: cells overnight at 25 °C, 10 μg/ml brefeldin A, then 37 °C for the indicated times; surface Hβ and fH followed with conformation-specific mAbs; half-times fitted (by hand or Solver) with a first-order in silico model"}, "[2]": {"target": "H-2L^d heavy chain (free heavy chain, L^d-fH, when without β2m and peptide) (mouse)", "sequence (P01897 25-362)": "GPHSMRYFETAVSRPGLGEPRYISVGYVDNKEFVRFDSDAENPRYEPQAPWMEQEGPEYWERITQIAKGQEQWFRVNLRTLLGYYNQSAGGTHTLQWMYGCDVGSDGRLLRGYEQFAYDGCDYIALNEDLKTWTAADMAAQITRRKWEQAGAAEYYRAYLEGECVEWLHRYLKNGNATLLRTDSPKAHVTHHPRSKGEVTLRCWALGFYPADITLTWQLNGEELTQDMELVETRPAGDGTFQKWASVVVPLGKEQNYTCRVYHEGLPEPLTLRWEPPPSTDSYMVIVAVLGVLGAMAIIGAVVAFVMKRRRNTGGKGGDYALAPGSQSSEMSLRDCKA", "assay": "flow cytometry on cells; BFA/temperature upshift decays: cells overnight at 25 °C, 10 μg/ml brefeldin A, then 37 °C for the indicated times; surface Hβ and fH followed with conformation-specific mAbs; half-times fitted (by hand or Solver) with a first-order in silico model"}}}
{"substance": "beta-2 microglobulin of HeLa/US6 cells (from UniProt P61769 21-119) (natural protein)", "values": [{"measurement": "half-time of β2m dissociation (r1) at 37 °C", "setting": "[1]", "value": 10, "unit": "min"}]}
{"substance": "beta-2 microglobulin of STF1 cells (from UniProt P61769 21-119) (natural protein)", "values": [{"measurement": "half-time of β2m dissociation (r1) at 37 °C", "setting": "[2]", "value": 3, "unit": "min"}]}
